The values that follow come from the supplement of paper PMC10126150.

The test system of this data set is ATP. The experiment in a line: switch fluorescence ratio, 500 uM ATP over buffer (Cy3 cluster intensity, sum of 5 cycles each) (fold (ratio)); higher = stronger signal-on switching upon ATP binding; sequences stand for … in TCGTCGGCAGCGTCAGATGTGTATAAGAGACAGTTTTTTTTTTTTTTTTTTTTTTTTT…TC. Conditions: aptamer strand: ATP DNA aptamer (quencher-CACCTGGGGGAGTATTGCGGAGGAAGG + anchor), 100 nM annealed; ATP concentration: 500 uM. Summed up:
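Five buffer/ATP imaging cycles were run on Cy3-labelled switching-strand clusters on a modified Illumina MiSeq flow-cell, with NaOH stripping and re-annealing between cycles. In each cycle, clusters annealed to 100 nM quencher-labelled ATP aptamer were imaged in selection buffer, then after 15 min with 500 uM ATP at 22 °C. Per cluster, the fluorescence ratio is summed target-cycle over summed buffer-cycle Cy3 intensity, averaged per switch-domain sequence. Only clusters within 100-1000 RFU were kept.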

± gives the standard deviation of the averaged measurements.
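Further: ATP exposure 15 min at 22 °C before imaging.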

With GTCGATTTAT, the switch fluorescence ratio came to 0.986 ± 0.045.

GTCGCCGGGT: the switch fluorescence ratio was 0.994 ± 0.026.

On to GTCGCTTAGT, for which the switch fluorescence ratio worked out at 0.973 ± 0.018.

GTCGGACATG: the switch fluorescence ratio was 0.993 ± 0.073.

With GTCGGATAGT, the switch fluorescence ratio was 0.996 ± 0.013.

As to GTCGGCAGGT, the switch fluorescence ratio turned out to be 0.994 ± 0.015.

Turning to GTCGGCATGG, the switch fluorescence ratio stood at 1.07 ± 0.059.

Turning to GTCGGGAGGC, the switch fluorescence ratio amounted to 1.02 ± 0.022.

Take GTCGGGATAT: the switch fluorescence ratio stood at 1.03 ± 0.018.

Turning to GTCGGGGAGG, the switch fluorescence ratio amounted to 1.04 ± 0.031.

Take GTCGGGGTTA: the switch fluorescence ratio was 0.989 ± 0.036.

Consider GTCGGTAAAC, for which the switch fluorescence ratio was 1.06 ± 0.014.

As for GTCGGTACGG, the switch fluorescence ratio amounted to 1 ± 0.026.

GTCGGTATTT: the switch fluorescence ratio is 0.986 ± 0.03.

With GTCGGTTGGG, the switch fluorescence ratio was 0.99 ± 0.026.

As to GTCGTAGCTT, the switch fluorescence ratio worked out at 1.058 ± 0.0089.

In the case of GTCGTATAGG, the switch fluorescence ratio came to 0.978 ± 0.023.

In the case of GTCGTATGAT, the switch fluorescence ratio was found to be 0.9993 ± 0.0091.

GTCGTGTGGG: the switch fluorescence ratio is 0.996 ± 0.0025.

On to GTCGTTTGGA, for which the switch fluorescence ratio was 1.01 ± 0.035.

With GTCTAGGGGG, the switch fluorescence ratio was found to be 1.05 ± 0.089.

Take GTCTATATGG: the switch fluorescence ratio is 0.997 ± 0.032.

Consider GTCTCAAGTT, for which the switch fluorescence ratio worked out at 1.02 ± 0.011.

Regarding GTCTCTGGGG, the switch fluorescence ratio came out at 1.08 ± 0.083.

As for GTCTGGGCGG, the switch fluorescence ratio came to 0.9919 ± 0.0031.

With GTCTGGGGTG, the switch fluorescence ratio is 1.04 ± 0.021.

Take GTCTGGTTGA: the switch fluorescence ratio stood at 1.02 ± 0.033.

Turning to GTCTGTGGGT, the switch fluorescence ratio was found to be 0.972 ± 0.06.

For the sequence GTCTTTAACT, the switch fluorescence ratio is 0.982 ± 0.059.

In the case of GTCTTTTAGG, the switch fluorescence ratio worked out at 0.9981 ± 0.0086.

As for GTCTTTTGTA, the switch fluorescence ratio worked out at 0.983 ± 0.04.

GTCTTTTTTT: the switch fluorescence ratio stood at 0.96 ± 0.045.

For GTGAAAACCG, the switch fluorescence ratio was 1.03 ± 0.062.

Consider GTGAAAAGGC, for which the switch fluorescence ratio worked out at 0.9862 ± 0.0032.

In the case of GTGAAGAAGG, the switch fluorescence ratio is 1.13 ± 0.2.

As for GTGACAATTT, the switch fluorescence ratio worked out at 0.998 ± 0.069.

As to GTGACAGGTC, the switch fluorescence ratio was determined as 0.974 ± 0.038.

Take GTGACGGGGG: the switch fluorescence ratio came to 1.02 ± 0.029.

Consider GTGAGCTGAT, for which the switch fluorescence ratio was 1.023 ± 0.0081.

Take GTGAGCTTGT: the switch fluorescence ratio was 1.02 ± 0.013.

With GTGAGGGAGC, the switch fluorescence ratio came to 1.12 ± 0.27.

With GTGAGGGGGA, the switch fluorescence ratio was 1 ± 0.033.

GTGAGGGGGC: the switch fluorescence ratio is 0.993 ± 0.1.

With GTGAGGGGTG, the switch fluorescence ratio was 0.996 ± 0.032.

With GTGAGTAATT, the switch fluorescence ratio is 1.02 ± 0.078.

As to GTGAGTATCG, the switch fluorescence ratio worked out at 0.968 ± 0.0098.

Consider GTGAGTGCCT, for which the switch fluorescence ratio amounted to 1.006 ± 0.01.

As for GTGAGTGTAT, the switch fluorescence ratio is 0.9682 ± 0.0092.

Turning to GTGATAACGG, the switch fluorescence ratio stood at 1.008 ± 0.0091.

Regarding GTGATACCGT, the switch fluorescence ratio amounted to 0.99 ± 0.0087.

Turning to GTGATAGGGA, the switch fluorescence ratio worked out at 1 ± 0.013.

Take GTGATAGTGG: the switch fluorescence ratio was 0.9385 ± 0.0022.

For the sequence GTGATATAGG, the switch fluorescence ratio was found to be 1.03 ± 0.041.

In the case of GTGATATGAG, the switch fluorescence ratio was 1.01 ± 0.036.

GTGATGACAT: the switch fluorescence ratio is 1 ± 0.013.

Regarding GTGATGGGTT, the switch fluorescence ratio was determined as 0.953 ± 0.014.

For GTGATGGTT, the switch fluorescence ratio worked out at 0.984 ± 0.03.

As to GTGCAACTAC, the switch fluorescence ratio came out at 2.93 ± 0.32.

With GTGCAAGGCG, the switch fluorescence ratio is 0.988 ± 0.032.

Take GTGCAGGGGC: the switch fluorescence ratio was determined as 1.04 ± 0.019.

In the case of GTGCATGGGG, the switch fluorescence ratio was determined as 1.02 ± 0.0056.

For GTGCCGGGTT, the switch fluorescence ratio came to 1.03 ± 0.066.

Take GTGCGGGGCG: the switch fluorescence ratio came out at 1.02 ± 0.067.

Regarding GTGCTACGTG, the switch fluorescence ratio came to 0.966 ± 0.059.

For GTGCTGCCGG, the switch fluorescence ratio was determined as 1.01 ± 0.049.

Consider GTGGAAATAG, for which the switch fluorescence ratio was found to be 1.01 ± 0.05.

Take GTGGAAGCCG: the switch fluorescence ratio came out at 1.013 ± 0.0034.

Consider GTGGAAGCTT, for which the switch fluorescence ratio was 1.01 ± 0.041.

GTGGACAACG: the switch fluorescence ratio stood at 0.9924 ± 0.0099.

As for GTGGAGAGGG, the switch fluorescence ratio came to 0.993 ± 0.038.

As for GTGGAGGGTT, the switch fluorescence ratio is 1.03 ± 0.04.

For GTGGATAATG, the switch fluorescence ratio came out at 0.996 ± 0.056.

As for GTGGATATGG, the switch fluorescence ratio came out at 0.995 ± 0.043.

In the case of GTGGATTCAC, the switch fluorescence ratio stood at 0.98 ± 0.0096.

Regarding GTGGATTGGT, the switch fluorescence ratio came to 0.974 ± 0.013.

Consider GTGGCCATTA, for which the switch fluorescence ratio was 0.995 ± 0.02.

With GTGGCCGGGT, the switch fluorescence ratio turned out to be 1.03 ± 0.0047.

Regarding GTGGCGGATT, the switch fluorescence ratio was 1.02 ± 0.013.

For GTGGCTAATT, the switch fluorescence ratio came to 1 ± 0.015.

In the case of GTGGCTGTTT, the switch fluorescence ratio is 1.02 ± 0.02.

GTGGGAAAAA: the switch fluorescence ratio came out at 1.01 ± 0.0085.

As to GTGGGAAGGT, the switch fluorescence ratio is 0.994 ± 0.038.

Turning to GTGGGATAAT, the switch fluorescence ratio came to 1.02 ± 0.021.

In the case of GTGGGATATA, the switch fluorescence ratio turned out to be 0.995 ± 0.049.

As to GTGGGATATT, the switch fluorescence ratio was 0.9809 ± 0.0056.

Take GTGGGATGTT: the switch fluorescence ratio was determined as 1.01 ± 0.015.

Regarding GTGGGATTAT, the switch fluorescence ratio is 1 ± 0.019.

As for GTGGGCAGGT, the switch fluorescence ratio came out at 0.988 ± 0.024.

For GTGGGCGGTC, the switch fluorescence ratio came out at 0.995 ± 0.057.

With GTGGGCGTTT, the switch fluorescence ratio stood at 1 ± 0.017.

Turning to GTGGGGAAAG, the switch fluorescence ratio was found to be 0.99 ± 0.034.

Consider GTGGGGAAGG, for which the switch fluorescence ratio was found to be 1.02 ± 0.054.

As for GTGGGGATGG, the switch fluorescence ratio was 0.966 ± 0.024.

For the sequence GTGGGGATTG, the switch fluorescence ratio is 0.9379 ± 0.0016.

Turning to GTGGGGCAGT, the switch fluorescence ratio worked out at 0.996 ± 0.025.

In the case of GTGGGGCGGG, the switch fluorescence ratio was found to be 0.999 ± 0.02.

Consider GTGGGGCTTA, for which the switch fluorescence ratio was 0.994 ± 0.032.

In the case of GTGGGGGAA, the switch fluorescence ratio is 0.994 ± 0.034.

As for GTGGGGGCGT, the switch fluorescence ratio was 1 ± 0.026.

With GTGGGGGGGC, the switch fluorescence ratio turned out to be 0.989 ± 0.032.

For the sequence GTGGGGGGTA, the switch fluorescence ratio was 1 ± 0.031.

In the case of GTGGGGGGTT, the switch fluorescence ratio was 0.993 ± 0.026.

With GTGGGGGTCT, the switch fluorescence ratio turned out to be 0.972 ± 0.013.

As to GTGGGGTAGT, the switch fluorescence ratio turned out to be 0.995 ± 0.018.

With GTGGGGTATG, the switch fluorescence ratio was 0.977 ± 0.032.

For the sequence GTGGGGTTGT, the switch fluorescence ratio was 0.973 ± 0.022.

Turning to GTGGGGTTTG, the switch fluorescence ratio stood at 1.01 ± 0.041.

GTGGGTGAC: the switch fluorescence ratio came to 0.977 ± 0.049.

On to GTGGGTTGTT, for which the switch fluorescence ratio came to 0.9719 ± 0.005.

In the case of GTGGTAAGGG, the switch fluorescence ratio is 0.972 ± 0.034.

GTGGTAATGG: the switch fluorescence ratio was 0.953 ± 0.021.

For GTGGTAGCAC, the switch fluorescence ratio stood at 1.01 ± 0.025.

Regarding GTGGTAGGTA, the switch fluorescence ratio was 0.998 ± 0.021.

As for GTGGTAGGTT, the switch fluorescence ratio was found to be 0.981 ± 0.027.

Regarding GTGGTATGTG, the switch fluorescence ratio came out at 0.95 ± 0.045.

On to GTGGTCGGGA, for which the switch fluorescence ratio worked out at 1.09 ± 0.15.

With GTGGTGCTTA, the switch fluorescence ratio amounted to 0.996 ± 0.032.

Turning to GTGGTGGTGG, the switch fluorescence ratio was 0.996 ± 0.023.

Consider GTGGTTACAG, for which the switch fluorescence ratio came out at 1.02 ± 0.011.

Take GTGGTTAGCA: the switch fluorescence ratio turned out to be 0.9712 ± 0.0065.
